Measured values from patent US20230212319A1, “NOVEL ANTIGEN BINDING DOMAINS AND SYNTHETIC ANTIGEN RECEPTORS INCORPORATING THE SAME” (University of Southern California, priority 2020, published 2023).
Positions count from the first letter of the chain named.

Columns and labels:
[1] = system: RAJI-CD19-KO cells; assay: JNG assay, co-culture with RAJI-CD19-KO cells; assay type: cell-based; conditions: co-culture with Raji-CD19-KO
Outline: (§1)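 Read-out is NFAT-driven GFP measured by flow cytometry after ~4–18 h co-culture of SAR-expressing JNG cells with target cells (E:T about 1:2). SARs were introduced by lentiviral spinfection and selected with puromycin or blasticidin when possible; scores (+/- to 5+ ≈ 5–50% GFP+) are relative to parental JNG cells.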

[2] = system: LNCaP cells; assay: JNG assay, co-culture with LNCaP cells; assay type: cell-based
Outline: (§2)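 GFP expression induced through the NFAT pathway was monitored by FACS once SAR-bearing Jurkat reporters had been cultured with target cells at an approximate 1:2 ratio for 4 to 18 hours; parental reporter cells served as the baseline.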

[3] = system: L363 cells; assay: JNG assay, co-culture with L363 cells; assay type: cell-based; conditions: for NFAT-GFP ASSAY: L363: co-culture with L363
Outline: as §1

[4] = system: Nalm6 cells; assay: JNG assay, co-culture with Nalm6 cells; assay type: cell-based; conditions: co-culture with Nalm6
Outline: as §2

[5] = system: RS;411; assay: JNG assay, co-culture with RS;411 cells; assay type: cell-based; conditions: co-culture with RS411
Outline: as §1

[6] = system: RAJI cells; assay: JNG assay, co-culture with RAJI cells; assay type: cell-based; conditions: JNG cells expressing construct, co-culture with Raji
Outline: as §1

[7] = system: SKOV3-Luc cells; assay: SKOV3 xenograft in NSG mice; conditions: for tumor inhibition / protection, SKOV3 xenograft: 1 × 10^6 SKOV3-Luc s.c., a week later 3 × 10^6 SAR-T i.v.

B1: 22178 (protein)
chain: MALPVTALLLPLALLLHAARPEVQLVESGGGVVQPGRSLRLSCAASGFSFSGYGMHWVRQAPGKGLEWVAYISYDGSNKYYADSVKGRFTISRDNSKNTLYLQMNSLRAEDTAVYYCAKDPAWGLRLGESSSYDFDIWGQGTMVTVSSGTGGGGSGGGGSGGGGSEFDIQMTQSPSSLSASVGDRVTITCKASDHINNWLAWYQQKPGQAPKLLIYGATTLETGVPSRFSGSGSGTDYTLTISSLQPEDFATYYCQQSWNTPWTFGQGTKLEIKRLEDLKNVFPPEVAVFEPSKAEIAHTQKATLVCLATGFYPDHVELSWWVNGKEVHSGVCTDPQPLKEQPALNDSRYCLSSRLRVSATFWQNPRNHFRCQVQFYGLSENDEWTQDRAKPVTQIVSAEAWGRADCGITSASYHQGVLSATILYEILLGKATLYAVLVSALVLMAMVKRKDSRGRAKRSGSGATNFSLLKQAGDVEENPGPTSATMDWIWRILFLVGAATGAHSGPQVQLQESGGGLAQAGGSLRLSCAASGRTFSMGWFRQAPGKEREFVAAITYSGGSPYYASSVRGRFTISRDNAKNTVYLQMNSLKPEDTAVYYCAANPTYGSDWNAENWGQGTQVTVSSGSGGGGSGGGGSGGGGSFEQVQLQQPGAELVKPGASVKMSCKASGYAFSSYWINWMKQKPGQGLEWIGQIYPGDGDTNYNGKFKGRATLTADTSSSTAYMQLSSLTSEDSAVYFCARSITTVVGCAMDYWGQGTSVTVSSTRIQNPDPAVYQLRDSKSSDKSVCLFTDFDSQTNVSQSKDSDVYITDKCVLDMRSMDFKSNSAVAWSNKSDFACANAFNNSIIPEDTFFPSSDVPCDVKLVEKSFETDTNLNFQNLSVIGFRILLLKVAGFNLLMTLRLWSSRAKRSGSGVKQTLNFDLLKLAGDVESNPGPSRGHMTEYKPTVRLATRDDVPRAVRTLAAAFADYPATRHTVDPDRHIERVTELQELFLTRVGLDIGKVWVADDGAAVAVWTTPESVEAGAVFAEIGPRMAELSGSRLAAQQQMEGLLAPHRPKEPAWFLATVGVSPDHQGKGLGSAVVLPGVEAAERAGVPAFLETSAPRNLPFYERLGFTVTADVEVPEGPRTWCMTRKPGA
- NFAT-GFP ASSAY: Raji-CD19-KO [1]: 5+ (refer to approximately 5%, 10%, 20%, 30%, 40% and 50% GFP positive cells)
- NFAT-GFP ASSAY: LNCaP ([2]; co-culture with LNCaP): 5+ (refer to approximately 5%, 10%, 20%, 30%, 40% and 50% GFP positive cells)
- NFAT-GFP ASSAY: L363 [3]: +/- (refer to approximately 5%, 10%, 20%, 30%, 40% and 50% GFP positive cells)
- NFAT-GFP ASSAY: Nalm6 [4]: 5+ (refer to approximately 5%, 10%, 20%, 30%, 40% and 50% GFP positive cells)
- NFAT-GFP ASSAY: RS411 [5]: + (refer to approximately 5%, 10%, 20%, 30%, 40% and 50% GFP positive cells)

B2: 22287 (protein)
chain: MALPVTALLLPLALLLHAARPACEVQLLESGGGLIQPGGSLRLSCAASGFTFSSHAMTWVRQAPGKGLEWVSAISGSGDYTHYADSVKGRFTISRDNSKNTVYLQMNSLRAEDSAVYYCAKDEDGGSLLGHRGQGTLVTVSSGTGGGGSGGGGSGGGGSEFDIQMTQSPSSLSASVGDRVTITCKASDHINNWLAWYQQKPGQAPKLLIYGATTLETGVPSRFSGSGSGTDYTLTISSLQPEDFATYYCQQSWNTPWTFGQGTKLEIKRLEGQPKANPTVTLFPPSSEELQANKATLVCLISDFYPGAVTVAWKADGSPVKAGVETTKPSKQSNNKYAASSYLSLTPEQWKSHRSYSCQVTHEGSTVEKTVAPTECSGRADCGFTSESYQQGVLSATILYEILLGKATLYAVLVSALVLMAMVKRKDSRGRAKRSGSGATNFSLLKQAGDVEENPGPTSTMDWIWRILFLVGAATGAHSLFNQEVQIPLTESYCGPCPKNWICYKNNCYQFFDESKNWYESQASCMSQNASLLKVYSKEDQDLLKLVKSAHWMGLVHIPTNGSWQWEDGSILSPNLLTIIEMQKGDCALYASSFKGYIENCSTPNTYICMQRTVSGGGGSGGGGSGGGGDLFNQEVQIPLTESYCGPCPKNWICYKNNCYQFFDESKNWYESQASCMSQNASLLKVYSKEDQDLLKLVKSAHWMGLVHIPTNGSWQWEDGSILSPNLLTIIEMQKGDCALYASSFKGYIENCSTPNTYICMQRTVGSGGGGSGGGGSGGGGSFEQVQLQQPGAELVKPGASVKMSCKASGYAFSSYWINWMKQKPGQGLEWIGQIYPGDGDTNYNGKFKGRATLTADTSSSTAYMQLSSLTSEDSAVYFCARSITTVVGCAMDYWGQGTSVTVSSTRASTKGPSVFPLAPSSKSTSGGTAALGCLVKDYFPEPVTVSWNSGALTSGVHTFPAVLQSSGLYSLSSVVTVPSSSLGTQTYICNVNHKPSNTKVDKRVEPKSCIPEDTFFPSPESSCDVKLVEKSFETDTNLNFQNLSVIGFRILLLKVAGFNLLMTLRLWSSRAKRSGSGVKQTLNFDLLKLAGDVESNPGPSRGHMTEYKPTVRLATRDDVPRAVRTLAAAFADYPATRHTVDPDRHIERVTELQELFLTRVGLDIGKVWVADDGAAVAVWTTPESVEAGAVFAEIGPRMAELSGSRLAAQQQMEGLLAPHRPKEPAWFLATVGVSPDHQGKGLGSAVVLPGVEAAERAGVPAFLETSAPRNLPFYERLGFTVTADVEVPEGPRTWCMTRKPGA
- NFAT-GFP ASSAY: Raji [6]: 3+ (refer to approximately 5%, 10%, 20%, 30%, 40% and 50% GFP positive cells)
- NFAT-GFP ASSAY: LNCaP with PSMA-USC76-chVH-G4S-ULBP2-S3 ([2]; LNCaP in presence of SAR adaptor PSMA-USC76-chVH-G4S-ULBP2-S3): + (refer to approximately 5%, 10%, 20%, 30%, 40% and 50% GFP positive cells)
- NFAT-GFP ASSAY: L363 [3]: +/- (refer to approximately 5%, 10%, 20%, 30%, 40% and 50% GFP positive cells)

B3: 22293 (protein)
chain: MALPVTALLLPLALLLHAARPACMDPDLEIRAAFLRQRNTALRTEVAELEQEVQRLENEVSQYETRYGPLGGGKGTGGGGSGGGGSGGGGSEFDIQMTQSPSSLSASVGDRVTITCKASDHINNWLAWYQQKPGQAPKLLIYGATTLETGVPSRFSGSGSGTDYTLTISSLQPEDFATYYCQQSWNTPWTFGQGTKLEIKRLEDLKNVFPPEVAVFEPSEAEISHTQKATLVCLATGFYPDHVELSWWVNGKEVHSGVCTDPQPLKEQPALNDSRYCLSSRLRVSATFWQNPRNHFRCQVQFYGLSENDEWTQDRAKPVTQIVSAEAWGRADCGFTSESYQQGVLSATILYEILLGKATLYAVLVSALVLMAMVKRKDSRGRAKRSGSGATNFSLLKQAGDVEENPGPTSATMDWIWRILFLVGAATGAHSGPEVQLVESGGGLVQAGGSLRLSCAASGRTFSMGWFRQAPGKEREFVAAITYSGGSPYYADSVKGRFTISRDNAKNTVYLQMNSLKPEDTAVYYCAANPTYGSDWNAENWGQGTQVTVSSGSGGGGSGGGGSGGGGSFEQVQLQQPGAELVKPGASVKMSCKASGYAFSSYWINWMKQKPGQGLEWIGQIYPGDGDTNYNGKFKGRATLTADTSSSTAYMQLSSLTSEDSAVYFCARSITTVVGCAMDYWGQGTSVTVSSTRIQNPDPAVYQLRDSKSSDKSVCLFTDFDSQTNVSQSKDSDVYITDKCVLDMRSMDFKSNSAVAWSNKSDFACANAFNNSIIPEDTFFPSPESSCDVKLVEKSFETDTNLNFQNLSVIGFRILLLKVAGFNLLMTLRLWSSRAKRSGSGVKQTLNFDLLKLAGDVESNPGPSRGHMTEYKPTVRLATRDDVPRAVRTLAAAFADYPATRHTVDPDRHIERVTELQELFLTRVGLDIGKVWVADDGAAVAVWTTPESVEAGAVFAEIGPRMAELSGSRLAAQQQMEGLLAPHRPKEPAWFLATVGVSPDHQGKGLGSAVVLPGVEAAERAGVPAFLETSAPRNLPFYERLGFTVTADVEVPEGPRTWCMTRKPGA
- NFAT-GFP ASSAY: LNCaP with PSMA-USC76-chVH-EZIP ([2]; LNCaP in presence of SAR adaptor PSMA-USC76-chVH-EZIP): +5.5
- NFAT-GFP ASSAY: L363 with BCMA-FHVH-74-EZIP ([3]; L363 in presence of SAR adaptor BCMA-FHVH-74-EZIP): +3

B4: 10518 (protein)
chain: MALPVTALLLPLALLLHAARPEVQLVESGGGLVQPGGSLRLSCAASGYTFSDYFMSWVRQAPGKGLEWVATISNGGTYTYYPDSVKGRFTISRDNSKNTLYLQMNSLRAEDTAVYYCARFDGYIFDYWGQGTLVTVSSGGGGSGGGGSGGGGSDIQMTQSPSSLSASVGDRVTITCRASQDISNYLNWYQQKPGKAPKLLIYYTSRLHSGVPSRFSGSGSGTDFTLTISSLQPEDFATYYCQQGNTLPYTFGQGTKVEIKRTREQKLISEEDLAKPTTTPAPRPPTPAPTIASQPLSLRPEACRPAAGGAVHTRGLDFACDIYIWAPLAGTCGVLLLSLVITLYCKRGRKKLLYIFKQPFMRPVQTTQEEDGCSCRFPEEEEGGCELRVKFSRSADAPAYQQGQNQLYNELNLGRREEYDVLDKRRGRDPEMGGKPRRKNPQEGLYNELQKDKMAEAYSEIGMKGERRRGKGHDGLYQGLSTATKDTYDALHMQALPPR
modifications: Synthetic Polynucloetide
- tumor inhibition / protection, SKOV3 xenograft [7]: weak protection

B5: 10656 (protein)
chain: B4 chain with Y48F, Y249W
modifications: Synthetic Polynucloetide
- tumor inhibition / protection, SKOV3 xenograft [7]: weak protection

B6: 10587 (protein)
chain: B4 chain with Y48F, N184S
modifications: Synthetic Polynucloetide
- tumor inhibition / protection, SKOV3 xenograft [7]: weak protection

B7: 10315 (protein)
chain: MALPVTALLLPLALLLHAARPDIQMTQSPSSLSASVGDRVTITCKSSQSLLYSSNQKNYLAWFQQKPGKAPKLLIYWASTRESGVPSRFSGSGSGTDFTLTISSLQPEDFATYFCHQYLSSYTFGQGTKVEIKRLEDLKNVFPPEVAVFEPSEAEISHTQKATLVCLATGFYPDHVELSWWVNGKEVHSGVCTDPQPLKEQPALNDSRYCLSSRLRVSATFWQNPRNHFRCQVQFYGLSENDEWTQDRAKPVTQIVSAEAWGRADCGFTSESYQQGVLSATILYEILLGKATLYAVLVSALVLMAMVKRKDSRGRAKRSGSGATNFSLLKQAGDVEENPGPTSMDWIWRILFLVGAATGAHSFEEVQLVESGGGLVQPGGSLRLSCAASGYTFTSYWLHWVRQAPGKGLEWVGYIRPSTGYTEYNQKFKDRFTISADTSKNTAYLQMNSLRAEDTAVYYCARSRWLLDYWGQGTLVTVSSTRIQNPDPAVYQLRDSKSSDKSVCLFTDFDSQTNVSQSKDSDVYITDKCVLDMRSMDFKSNSAVAWSNKSDFACANAFNNSIIPEDTFFPSPESSCDVKLVEKSFETDTNLNFQNLSVIGFRILLLKVAGFNLLMTLRLWSS
modifications: Synthetic Polynucloetide
- tumor inhibition / protection, SKOV3 xenograft [7]: tumor inhibition
- survival, SKOV3 xenograft ([7]; mouse, in vivo): improvement in survival
